Assay results reported in PMC3987144 (The Journal of Cell Biology, 2014).
One block for each molecule: values may come before it.

B1: His-n-Syb (neuronal Synaptobrevin, amino acids 1-104) (domain or fragment)
chain: MADAAPAGDAPPNAGAPAGEGGDGEIVGGPHNPQQIAAQKRLQQTQAQVDEVVDIMRTNVEKVLERDSKLSELDDRADALQQGASQFEQQAGKLKRKFWLQNLK
B2: His-SNAP25 (natural protein)
chain: MPADPSEEVAPQVPKTELEELQINAQGVADESLESTRRMLALCEESKEAGIRTLVALDDQGEQLDRIEEGMDQINADMREAEKNLSGMEKCCGICVLPCNKSQSFKEDDGTWKGNDDGKVVNNQPQRVMDDRNGMMAQAGYIGRITNDAREDEMEENMGQVNTMIGNLRNMALDMGSELENQNRQIDRINRKGESNEARIAVANQRAHQLLK
B3: GST-Syx1A-H3 (Syx1A SNARE domain, 200-267 aa) (domain or fragment)
chain: ARHQDIMKLETSIKELHDMFMDMAMLVESQGEMIDRIEYHVEHAMDYVQTATQDTKKALKYQSKARRK

Columns and labels:
[1] = target: Syx1A (Syntaxin 1A), endogenous (Drosophila melanogaster (endogenous in adult fly heads)) (UniProt Q24547); assay: co-IP
Chain of Syx1A (Syntaxin 1A), endogenous (Drosophila melanogaster (endogenous in adult fly heads)) (Q24547 whole entry, the tested form may be a part): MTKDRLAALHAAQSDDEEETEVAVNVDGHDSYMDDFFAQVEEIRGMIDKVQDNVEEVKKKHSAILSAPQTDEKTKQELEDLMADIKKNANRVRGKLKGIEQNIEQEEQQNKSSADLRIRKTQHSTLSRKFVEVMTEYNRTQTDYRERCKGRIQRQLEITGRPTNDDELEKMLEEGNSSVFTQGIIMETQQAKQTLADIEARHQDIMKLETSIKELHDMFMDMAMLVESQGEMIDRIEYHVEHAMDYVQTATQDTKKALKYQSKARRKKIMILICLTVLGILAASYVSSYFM

[2] = target: GST-Syx1A (Syntaxin 1A, 1-267 aa) (Drosophila melanogaster, UniProt Q24547 1-267); assay: pull-down
[3] = target: GST-open Syx1A (Syx1A L168A/E169A mutant, 1-267 aa) (Drosophila melanogaster, UniProt Q24547 1-267, L168A | E169A); assay: pull-down
[4] = target: V100 (neuronal v-ATPase V0 subunit a1), endogenous (Drosophila melanogaster (endogenous in adult fly heads)) (UniProt Q8IML5); assay: co-IP
[5] = target: B2; assay: pull-down

- percent of V100 in a complex with Syx1A [1]: < 50%
Molecule: V100 (neuronal v-ATPase V0 subunit a1), endogenous (from UniProt Q8IML5 1-833) (natural protein)

Molecule: B1
- binding result [2]: binds

Molecule: B2
- binding result [3]: binds
- binding result [2]: binds
- percent of total input in complex with V100 (% of total input) [4]: 1

Molecule: B3
- binding result [5]: binds
